Among the data in US20190234935A1 are decrease in 12-hour food intake after a single subcutaneous administration of 16 nmol/kg values, retold here.

Some results are limits rather than exact numbers.

This test concerns the target mouse GFRAL (endogenous, wild type mice against Gfral-/- mice) (mouse) (UniProt Q6SJE0). Put plainly: cell-based or functional assay.

mouse GFRAL (endogenous, wild type mice against Gfral-/- mice) (mouse), sequence (Q6SJE0 20-393): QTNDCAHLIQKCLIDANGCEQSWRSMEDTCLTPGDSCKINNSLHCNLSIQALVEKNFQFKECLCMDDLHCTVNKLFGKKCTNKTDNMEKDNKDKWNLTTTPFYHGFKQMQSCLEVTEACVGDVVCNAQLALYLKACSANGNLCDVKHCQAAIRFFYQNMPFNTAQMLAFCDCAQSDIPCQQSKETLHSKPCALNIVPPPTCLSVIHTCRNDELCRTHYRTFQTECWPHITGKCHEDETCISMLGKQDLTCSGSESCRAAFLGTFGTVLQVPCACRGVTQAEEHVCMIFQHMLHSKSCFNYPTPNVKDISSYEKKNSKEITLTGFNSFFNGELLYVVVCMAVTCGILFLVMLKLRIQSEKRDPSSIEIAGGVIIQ

In turn, “recombinant human GDF15 (generated by Janssen BioTherapeutics) (from UniProt Q99988 197-308) (ligand)” gave a decrease in 12-hour food intake after a single subcutaneous administration of 16 nmol/kg of over 40%.
